Earlier results on one substance are cited in PMC2912364.

The target of the data set is IL-15Rα (UniProt Q13261).
UniProt Q13261, sequence (Q13261 31-205): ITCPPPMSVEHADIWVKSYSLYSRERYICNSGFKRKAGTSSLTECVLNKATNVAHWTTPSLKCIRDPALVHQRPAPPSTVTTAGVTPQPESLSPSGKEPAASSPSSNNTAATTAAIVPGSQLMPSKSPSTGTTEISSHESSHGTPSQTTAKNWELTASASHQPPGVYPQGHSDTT

Take IL-15 (from UniProt P40933): the Kd (as a rule, a measure of binding affinity in units of concentration) is 0.038 nM.
